Reference: paper PMC4519933, “Crystal Structure of a Hidden Protein, YcaC, a Putative Cysteine Hydrolase from Pseudomonas aeruginosa, with and without an Acrylamide Adduct” (International Journal of Molecular Sciences, 2015)

Assays:
[1] = target: the molecule itself; assay: crystal structure; crystal form I, space group C2, 2.34 Å; 9 mg/mL SeMet PlcHR2 preparation in 50 mM NaCl, 50 mM Tris-HCl pH 7.4, 0.1 mM TCEP; reservoir 26% PEG 3350, 400 mM (NH4)2SO4, 70 mM bis-Tris-HCl pH 6.75, 2,5-hexanediol additive; eight chains in the asymmetric unit
[2] = target: the molecule itself; assay: crystal structure; crystal form II, space group P21, 2.56 Å; 5.3 mg/mL SeMet PlcHR2 preparation in 50 mM NaCl, 5 mM MgCl2, 50 mM Tris-HCl pH 7.4, 0.1 mM TCEP; reservoir 20% PEG 3350, 200 mM Na malonate, 100 mM MES-NaOH pH 6.75; eight chains in the asymmetric unit

| Protein | stoichiometry N [1] | stoichiometry N [2] |
| --- | --- | --- |
| Pseudomonas aeruginosa YcaC, crystal form I (Cys118 linked to propanamide) (enzyme, P. aeruginosa (endogenous in PADD1976), UniProt Q9I4D6 2-205, looked up, Cys118 linked to a propanamide (acrylamide adduct); bacteria grown in minimal media with L-selenomethionine (SeMet), monomer 205 residues, 22.5 kDa; the N-formylmethionine appears to have been cleaved off; residues 204 and 205 disordered in the crystal; Not cloned: crystallised as a contaminant of a SeMet PlcHR2 preparation; identity found by molecular replacement and side chain densities; also called Pa YcaC; PA1202) SFTYKRLDKNDAAVLFVDHQAGLLSLVRDFSPDEFKNNVLALADIARFFNLPTILTTSFEDGPNGPLVPELKEMFPQAPYIARPGNINAWDNEDFVKAVKATGKKQLIIAGVVTDVCVAFPTLSALEEGFDVFVVTDASGTFNPVVRDAAWARMTAAGAQLMNWFSVGCELHRDWRNDIEGFGAILGGHLPAYANLIQSFGTKK | 8 | – |
| Pseudomonas aeruginosa YcaC, crystal form II (Cys118 as S-mercaptocysteine) (enzyme, P. aeruginosa (endogenous in PADD1976), UniProt Q9I4D6 2-205, looked up, Cys118 covalently modified to S-mercaptocysteine; bacteria grown in minimal media with L-selenomethionine (SeMet), monomer 205 residues, 22.5 kDa; the N-formylmethionine appears to have been cleaved off; residues 204 and 205 disordered in the crystal; Same protein and preparation route as m1; differs in the modification of Cys118 seen in the crystal; also called Pa YcaC; PA1202) SFTYKRLDKNDAAVLFVDHQAGLLSLVRDFSPDEFKNNVLALADIARFFNLPTILTTSFEDGPNGPLVPELKEMFPQAPYIARPGNINAWDNEDFVKAVKATGKKQLIIAGVVTDVCVAFPTLSALEEGFDVFVVTDASGTFNPVVRDAAWARMTAAGAQLMNWFSVGCELHRDWRNDIEGFGAILGGHLPAYANLIQSFGTKK | – | 8 |
